Laboratory results from the FLAb antibody collection.

B1: unnamed (protein)
chain 1: EVQLVQSGGGLVKPGGSLRLSCAASGFTFSSYSMNWVRQAPGKGLEWVSSISSSSSYIYYADSVKGRFTISRDNAKNSLYLQMNSLRAEDTAVYYCARVTDAFDIWGQGTMVTVSS
chain 2: DIQMTQSPSSVSASIGDRVTITCRASQGIDNWLGWYQQKPGKAPKLLIYDASNLDTGVPSRFSGSGSGTYFTLTISSLQAEDFAVYFCQQAKAFPPTFGGGTKVDIK
B2: unnamed (protein)
chain 1: QVQLVQSGAEVKKPGASVKVSCKASGYIFSNYWIQWVRQAPGQGLEWMGEILPGSGSTEYAQKFQGRVTMTADTSTSTAYMELSSLRSEDTAVYYCARYFFGSSPNWYFVWGQGT
chain 2: DIQMTQSPSLSASVGDRVTITCGASENIYGALNWYQRKPGKAPKLLIYGATNLADGVPSRFSGSGSGTDYTLTISSLQPEDFATYYCQNVLNTPLTFGQGTKVEIK
B3: unnamed (protein)
chain 1: EVQLLESGGGLVQPGGSLRLSCAASGFTFSSYIMMWVRQAPGKGLEWVSSIYPSGGITFYADTVKGRFTISRDNSKNTLYLQMNSLRAEDTAVYYCARIKLGTVTTVDYWGQGTLVTVSS
chain 2: QSALTQPASVSGSPGQSITISCTGTSSDVGGYNYVSWYQQHPGKAPKLMIYDVSNRPSGVSNRFSGSKSGNTASLTISGLQAEDEADYYCSSYTSSSTRVFGTGTKVTVL
B4: unnamed (protein)
chain 1: EVQLVESGGGLVQPGGSLRLSCAASGFTFTDYTMDWVRQAPGKGLEWVADVNPNSGGSIYNQRFKGRFTLSVDRSKNTLYLQMNSLRAEDTAVYYCARNLGPSFYFDYWGQGTLVTVSS
chain 2: DIQMTQSPSSLSASVGDRVTITCKASQDVSIGVAWYQQKPGKAPKLLIYSASYRYTGVPSRFSGSGSGTDFTLTISSLQPEDFATYYCQQYYIYPYTFGQGTKVEIK
B5: unnamed (protein)
chain 1: QVQLVESGGGVVQPGRSLRLSCTASGFTFKNYAMHWVRQAPAKGLEWVATISYDGRNIQYADSVKGRFTFSRDNSQDTLYLQLNSLRPEDTAVYYCARPVRSRWLQLGLEDAFHIWGQGTMVTVSS
chain 2: AIRMTQSPSSFSASTGDRVTITCRASQDIRNYVAWYQQKSGKAPKFLIYAASTLQSGVPSRFSGSGSGTDFTLTINSLQSEDFATYYCQQYYNSPPTFGQGTRVEIT
B6: unnamed (protein)
chain 1: QVQLVQSGSELKKPGASVKVSCKASGYTFTNYGMNWVRQAPGQGLEWMGWINTYTGEPTYADDFTGRFVFSLDTSVSTAYLQISSLKAEDTAVYYCARNPINYYGINYEGYVMDYWGQGTLVTVSS
chain 2: not shown
B7: unnamed (protein)
chain 1: EVQLVESGGGLVQPGGSLRLSCAVSGLSLTSNSVNWIRQAPGKGLEWVGLIWSNGDTDYNSAIKSRFTISRDTSKSTVYLQMNSLRAEDTAVYYCAREYYGYFDYWGQGTLVTVSS
chain 2: DIQMTQSPSSLSASVGDRVTITCLASEGISSYLAWYQQKPGKAPKLLIYGANSLQTGVPSRFSGSGSATDYTLTISSLQPEDFATYYCQQSYKFPNTFGQGTKVEVK
B8: unnamed (protein)
chain 1: EVQLVESGGGLVQPGGSLRLSCAASGFTFSSYWMSWVRQAPGKGLEWVAYIKQDGNEKYYVDSVKGRFTISRDNAKNSLYLQMNSLRAEDTAVYYCAREGILWFGDLPTFWGQGTLVTVSS
chain 2: DIQMTQSPSSLSASVGDRVTITCRASQGISNWLAWYQQKPEKAPKSLIYAASSLQSGVPSRFSGSGSGTDFTLTISSLQPEDFATYYCQQYDSYPRTFGQGTKVEIK
B9: unnamed (protein)
chain 1: EVQLVESGGGLVQPGGSLRLSCAASGFTFSNYGMSWVRQAPGKGLEWVASISSGGGSTYYPDNVKGRFTISRDDAKNSLYLQMNSLRAEDTAVYYCARGGAGIDYWGQGTLVTVSS
chain 2: DIQMTQSPSSLSASVGDRVTITCKSIQTLLYSSNQKNYLAWFQQKPGKAPKLLIYWASIRKSGVPSRFSGSGSGTDFTLTISSLQPEDLATYYCQQYYSYPLTFGGGTKLEIK
B10: unnamed (protein)
chain 1: QVQLVQSGAEVKKPGASVKVSCKASGHIFSNYWIQWVRQAPGQGLEWMGEILPGSGHTEYTENFKDRVTMTRDTSTSTVYMELSSLRSEDTAVYYCARYFFGSSPNWYFDVWGQGTLVTVSS
chain 2: DIQMTQSPSSLSASVGDRVTITCGASENIYGALNWYQQKPGKAPKLLIYGATNLADGVPSRFSGSGSGTDFTLTISSLQPEDFATYYCQNVLNTPLTFGQGTKVEIK
B11: unnamed (protein)
chain 1: QVQLVQSGAEVKKPGSSVKVSCKASGYTFTDQTIHWMRQAPGQGLEWIGYIYPRDDSPKYNENFKGKVTITADKSTSTAYMELSSLRSEDTAVYYCAIPDRSGYAWFIYWGQGTLVTVSS
chain 2: DIQMTQSPSSLSASVGDRVTITCKASRDVAIAVAWYQQKPGKVPKLLIYWASTRHTGVPSRFSGSGSRTDFTLTISSLQPEDVADYFCHQYSSYPFTFGSGTKLEIK
B12: unnamed (protein)
chain 1: EVQLVESGGGLVQPGGSLRLSCAASGYTFSSYWIEWVRQAPGKGLEWIGEILPGGGDTNYNEIFKGRATFSADTSKNTAYLQMNSLRAEDTAVYYCTRRVPIRLDYWGQGTLVTVSS
chain 2: DIQLTQSPSSLSASVGDRVTITCKASQSVDYEGDSFLNWYQQKPGKAPKLLIYAASNLESGVPSRFSGSGSGTDFTLTISSLQPEDFATYYCQQSNEDPLTFGQGTKVEIK
B13: unnamed (protein)
chain 1: QVQLVQSGAEVKKPGASVKVSCKASGYYTEAYYIHWVRQAPGQGLEWMGRIDPATGNTKYAPRLQDRVTMTRDTSTSTVYMELSSLRSEDTAVYYCASLYSLPVYWGQGTTVTVSS
chain 2: DVVMTQSPLSLPVTLGQPASISCKSSQSLLYSDAKTYLNWFQQRPGQSPRRLIYQISRLDPGVPDRFSGSGSGTDFTLKISRVEAEDVGVYYCLQGTHYPVLFGQGTRLEIK
B14: unnamed (protein)
chain 1: QVQLQQSGAELVKPGASVKLSCKASGYTFTSYDINWVRQRPEQGLEWIGWIFPGDGSTKYNEKFKGKATLTTDKSSSTAYMQLSRLTSEDSAVYFCAREDYYDNSYYFDYWGQGTTLTVSS
chain 2: DIQMTQTTSSLSASLGDRVTISCRASQDISNYLNWYQQKPDGTVKLLIYYTSRLHSGVPSRFSGSGSGTDYSLTISNLEQEDIATYFCQQGNTLPWTFGGGTKLEIK
B15: unnamed (protein)
chain 1: EVQLVESGGGLVQPGGSLRLSCAASGYEFSRSWMNWVRQAPGKGLEWVGRIYPGDGDTNYSGKFKGRFTISADTSKNTAYLQMNSLRAEDTAVYYCARDGSSWDWYFDVWGQGTLVTVSS
chain 2: DIQMTQSPSSLSASVGDRVTITCRSSQSIVHSVGNTFLEWYQQKPGKAPKLLIYKVSNRFSGVPSRFSGSGSGTDFTLTISSLQPEDFATYYCFQGSQFPYTFGQGTKVEIK
B16: unnamed (protein)
chain 1: EVQLVESGGGLVQPGGSLRLSCAASGYDFTHYGMNWVRQAPGKGLEWVGWINTYTGEPTYAADFKRRFTFSLDTSKSTAYLQMNSLRAEDTAVYYCAKYPYYYGTSHWYFDVWGQGTLVTVSS
chain 2: DIQLTQSPSSLSASVGDRVTITCSASQDISNYLNWYQQKPGKAPKVLIYFTSSLHSGVPSRFSGSGSGTDFTLTISSLQPEDFATYYCQQYSTVPWTFGQGTKVEIK
B17: unnamed (protein)
chain 1: QVQLQQPGAELVKPGASVKMSCKASGYTFTSYNMHWVKQTPGRGLEWIGAIYPGNGDTSYNQKFKGKATLTADKSSSTAYMQLSSLTSEDSAVYYCARSTYYGGDWYFNVWGAGTTVTVSA
chain 2: QIVLSQSPAILSASPGEKVTMTCRASSSVSYIHWFQQKPGSSPKPWIYATSNLASGVPVRFSGSGSGTSYSLTISRVEAEDAATYYCQQWTSNPPTFGGGTKLEIK
B18: unnamed (protein)
chain 1: QVQLQQSGTVLARPGASVKMSCKASGYSFTRYWMHWIKQRPGQGLEWIGAIYPGNSDTSYNQKFEGKAKLTAVTSASTAYMELSSLTHEDSAVYYCSRDYGYYFDFWGQGTTLTVSS
chain 2: QIVSTQSPAIMSASPGEKVTMTCSASSSRSYMQWYQQKPGTSPKRWIYDTSKLASGVPARFSGSGSGTSYSLTISSMEAEDAATYYCHQRSSYTFGGGTKLEIK
B19: unnamed (protein)
chain 1: EVQLVQSGAEVKKPGASVKVSCKASGYTFTDYNMHWVRQAPGQGLEWMGEINPNSGGAGYNQKFKGRVTMTTDTSTSTAYMELRSLRSDDTAVYYCARLGYDDIYDDWYFDVWGQGTTVTVSS
chain 2: DIQMTQSPSSLSASVGDRVTITCRASQDISNYLNWYQQKPGKAPKLLIYYTSRLLSGVPSRFSGSGSGTDFTLTISSLQPEDFATYYCQQGDTLPYTFGGGTKVEIK
B20: unnamed (protein)
chain 1: EVQLVQSGGGLVKPGGSLRLSCAASGFTFSSFAMHWVRQAPGKGLEWISVIDTRGATYYADSVKGRFTISRDNAKNSLYLQMNSLRAEDTAVYYCARLGNFYYGMDVWGQGTTVTVSS
chain 2: EIVLTQSPGTLSVSPGERATLSCRASQSIGSSLHWYQQKPGQAPRLLIKYASQSLSGIPDRFSGSGSGTDFTLTISRLEPEDFAVYYCHQSSRLPHTFGQGTKVEIK

assay: patients with anti-drug antibodies; higher = more immunogenic

Row | Protein | patients with anti-drug antibodies [%]
1 | B1 | 4.1
2 | B2 | 0
3 | B3 | 5
4 | B4 | 2.8
5 | B5 | 0
6 | B6 | 9.4
7 | B7 | 5
8 | B8 | 0
9 | B9 | 0
10 | B10 | 0.2
11 | B11 | 24
12 | B12 | 2.6
13 | B13 | 0
14 | B14 | 85
15 | B15 | 1.4
16 | B16 | 3.5
17 | B17 | 11
18 | B18 | 1.5
19 | B19 | 18.1
20 | B20 | 0
